{"source": "patent US20190142971A1", "about": "“FORMULATION AND DELIVERY OF MODIFIED NUCLEOSIDE, NUCLEOTIDE, AND NUCLEIC ACID COMPOSITIONS” (ModernaTX, Inc., priority 2013, published 2019)", "molecules": {"B1": {"name": "EPO: modified mRNA encoding human erythropoietin, SEQ ID NO: 7, Cap1, fully modified with 5-methylcytosine and pseudouridine; LNP NPA-060-1 in Examples 17-22 (nucleic acid)", "chain": "GGGAAAUAAGAGAGAAAAGAAGAGUAAGAAGAAAUAUAAGAGCCACCAUGGGAGUGCACGAGUGUCCCGCGUGGUUGUGGUUGCUGCUGUCGCUCUUGAGCCUCCCACUGGGACUGCCUGUGCUGGGGGCACCACCCAGAUUGAUCUGCGACUCACGGGUACUUGAGAGGUACCUUCUUGAAGCCAAAGAAGCCGAAAACAUCACAACCGGAUGCGCCGAGCACUGCUCCCUCAAUGAGAACAUUACUGUACCGGAUACAAAGGUCAAUUUCUAUGCAUGGAAGAGAAUGGAAGUAGGACAGCAGGCCGUCGAAGUGUGGCAGGGGCUCGCGCUUUUGUCGGAGGCGGUGUUGCGGGGUCAGGCCCUCCUCGUCAACUCAUCACAGCCGUGGGAGCCCCUCCAACUUCAUGUCGAUAAAGCGGUGUCGGGGCUCCGCAGCUUGACGACGUUGCUUCGGGCUCUGGGCGCACAAAAGGAGGCUAUUUCGCCGCCUGACGCGGCCUCCGCGGCACCCCUCCGAACGAUCACCGCGGACACGUUUAGGAAGCUUUUUAGAGUGUACAGCAAUUUCCUCCGCGGAAAGCUGAAAUUGUAUACUGGUGAAGCGUGUAGGACAGGGGAUCGCUGAUAAGCUGCCUUCUGCGGGGCUUGCCUUCUGGCCAUGCCCUUCUUCUCUCCCUUGCACCUGUACCUCUUGGUCUUUGAAUAAAGCCUGAGUAGGAAG", "modifications": "Cap1, 5-methylcytosine, pseudouridine"}}, "tested_on": "non-human primates (cynomolgus monkey)", "test": "Example 22: NHP hematology: neutrophils, reticulocytes, HGB, HCT, RBC (Tables 40-44)", "format": "in vivo", "protocol": "LNP formulations, shown in Table 33 (above), were administered to non-human primates (NHP) (cynomolgus monkey) (n=2) as intravenous injection (IV). The NHP were administered a single modified mRNA IV dose of 0.5 mg/kg, 0.05 mg/kg or 0.005 mg/kg of G-CSF or EPO in a dose volume of 0.5 mL/kg. The NHPs were bled before dosing with the modified mRNA LNP formulations to determine protein expression in the serum and a baseline complete blood count. After administration with the G-CSF modified mRNA formulation the NHP were bled at 8, 24, 48 and 72 hours to determined protein expression. After administration with the EPO modified mRNA formulation the NHP were bled at 8, 24, 48, 72 hours and 7 days to determined protein expression.\nSamples collected from the NHPs after they were administered with G-CSF or EPO modified mRNA formulations were analyzed by ELISA to determine protein expression. Neutrophil and reticulocyte count was also determined pre-dose, 24 hours, 3 days, 7 days, 14 days and 18 days after administration of the modified G-CSF or EPO formulation.", "key": {"[1]": {"settings": "0.005 mg/kg, 14/18 days, Female NHP"}, "[2]": {"settings": "0.005 mg/kg, 14/18 days, Male NHP"}, "[3]": {"settings": "0.005 mg/kg, 24 hours, Female NHP"}, "[4]": {"settings": "0.005 mg/kg, 24 hours, Male NHP"}, "[5]": {"settings": "0.005 mg/kg, 3 days, Female NHP"}, "[6]": {"settings": "0.005 mg/kg, 7 days, Female NHP"}, "[7]": {"settings": "0.005 mg/kg, Pre-dose, Female NHP"}, "[8]": {"settings": "0.005 mg/kg, Pre-dose, Male NHP"}, "[9]": {"settings": "0.05 mg/kg, 14/18 days, Female NHP"}, "[10]": {"settings": "0.05 mg/kg, 14/18 days, Male NHP"}, "[11]": {"settings": "0.05 mg/kg, 24 hours, Female NHP"}}, "data": [{"molecule": "B1", "values": [{"measurement": "Female NHP HGB", "setting": "0.005 mg/kg IV, 14/18 days", "result": 129, "unit": "g/L"}, {"measurement": "Female NHP Neutrophils", "setting": "0.005 mg/kg IV, 14/18 days", "result": "2.54 10^9/L"}, {"measurement": "Male NHP HGB", "setting": "0.005 mg/kg IV, 14/18 days", "result": 128, "unit": "g/L"}, {"measurement": "Male NHP Neutrophils", "setting": "0.005 mg/kg IV, 14/18 days", "result": "1.52 10^9/L"}, {"measurement": "Female NHP HGB", "setting": "0.005 mg/kg IV, 24 hours", "result": 128, "unit": "g/L"}, {"measurement": "Female NHP Neutrophils", "setting": "0.005 mg/kg IV, 24 hours", "result": "2.59 10^9/L"}, {"measurement": "Male NHP HGB", "setting": "0.005 mg/kg IV, 24 hours", "result": 122, "unit": "g/L"}, {"measurement": "Male NHP Neutrophils", "setting": "0.005 mg/kg IV, 24 hours", "result": "5.37 10^9/L"}, {"measurement": "Female NHP HGB", "setting": "0.005 mg/kg IV, 3 days", "result": 130, "unit": "g/L"}, {"measurement": "Female NHP Neutrophils", "setting": "0.005 mg/kg IV, 3 days", "result": "2.83 10^9/L"}, {"measurement": "Male NHP HGB", "setting": "0.005 mg/kg IV, 3 days", "result": 125, "unit": "g/L"}, {"measurement": "Male NHP Neutrophils", "setting": "0.005 mg/kg IV, 3 days", "result": "6.08 10^9/L"}, {"measurement": "Female NHP HGB", "setting": "0.005 mg/kg IV, 7 days", "result": 127, "unit": "g/L"}, {"measurement": "Female NHP Neutrophils", "setting": "0.005 mg/kg IV, 7 days", "result": "2.23 10^9/L"}, {"measurement": "Male NHP HGB", "setting": "0.005 mg/kg IV, 7 days", "result": 119, "unit": "g/L"}, {"measurement": "Male NHP Neutrophils", "setting": "0.005 mg/kg IV, 7 days", "result": "3.51 10^9/L"}, {"measurement": "Female NHP HGB", "setting": "0.005 mg/kg IV, Pre-dose", "result": 136, "unit": "g/L"}, {"measurement": "Female NHP Neutrophils", "setting": "0.005 mg/kg IV, Pre-dose", "result": "5.96 10^9/L"}, {"measurement": "Male NHP HGB", "setting": "0.005 mg/kg IV, Pre-dose", "result": 132, "unit": "g/L"}, {"measurement": "Male NHP Neutrophils", "setting": "0.005 mg/kg IV, Pre-dose", "result": "5.46 10^9/L"}, {"measurement": "HCT", "setting": "[1]", "result": 0.42, "unit": "L/L"}, {"measurement": "RBC", "setting": "[1]", "result": "5.36 10^12/L"}, {"measurement": "HCT", "setting": "[2]", "result": 0.42, "unit": "L/L"}, {"measurement": "RBC", "setting": "[2]", "result": "5.67 10^12/L"}, {"measurement": "HCT", "setting": "[3]", "result": 0.43, "unit": "L/L"}, {"measurement": "RBC", "setting": "[3]", "result": "5.35 10^12/L"}, {"measurement": "HCT", "setting": "[4]", "result": 0.42, "unit": "L/L"}, {"measurement": "RBC", "setting": "[4]", "result": "5.63 10^12/L"}, {"measurement": "HCT", "setting": "[5]", "result": 0.42, "unit": "L/L"}, {"measurement": "RBC", "setting": "[5]", "result": "5.42 10^12/L"}, {"measurement": "HCT", "setting": "0.005 mg/kg, 3 days, Male NHP", "result": 0.44, "unit": "L/L"}, {"measurement": "RBC", "setting": "0.005 mg/kg, 3 days, Male NHP", "result": "5.77 10^12/L"}, {"measurement": "HCT", "setting": "[6]", "result": 0.42, "unit": "L/L"}, {"measurement": "RBC", "setting": "[6]", "result": "5.35 10^12/L"}, {"measurement": "HCT", "setting": "0.005 mg/kg, 7 days, Male NHP", "result": 0.41, "unit": "L/L"}, {"measurement": "RBC", "setting": "0.005 mg/kg, 7 days, Male NHP", "result": "5.49 10^12/L"}, {"measurement": "HCT", "setting": "[7]", "result": 0.45, "unit": "L/L"}, {"measurement": "RBC", "setting": "[7]", "result": "5.72 10^12/L"}, {"measurement": "HCT", "setting": "[8]", "result": 0.48, "unit": "L/L"}, {"measurement": "RBC", "setting": "[8]", "result": "6.15 10^12/L"}, {"measurement": "Female NHP HGB", "setting": "0.05 mg/kg IV, 14/18 days", "result": 129, "unit": "g/L"}, {"measurement": "Female NHP Neutrophils", "setting": "0.05 mg/kg IV, 14/18 days", "result": "1.27 10^9/L"}, {"measurement": "Male NHP HGB", "setting": "0.05 mg/kg IV, 14/18 days", "result": 133, "unit": "g/L"}, {"measurement": "Male NHP Neutrophils", "setting": "0.05 mg/kg IV, 14/18 days", "result": "1.53 10^9/L"}, {"measurement": "Female NHP HGB", "setting": "0.05 mg/kg IV, 24 hours", "result": 116, "unit": "g/L"}, {"measurement": "Female NHP Neutrophils", "setting": "0.05 mg/kg IV, 24 hours", "result": "2.63 10^9/L"}, {"measurement": "Male NHP HGB", "setting": "0.05 mg/kg IV, 24 hours", "result": 123, "unit": "g/L"}, {"measurement": "Male NHP Neutrophils", "setting": "0.05 mg/kg IV, 24 hours", "result": "2.51 10^9/L"}, {"measurement": "Female NHP HGB", "setting": "0.05 mg/kg IV, 3 days", "result": 120, "unit": "g/L"}, {"measurement": "Female NHP Neutrophils", "setting": "0.05 mg/kg IV, 3 days", "result": "4.08 10^9/L"}, {"measurement": "Male NHP HGB", "setting": "0.05 mg/kg IV, 3 days", "result": 116, "unit": "g/L"}, {"measurement": "Male NHP Neutrophils", "setting": "0.05 mg/kg IV, 3 days", "result": "1.73 10^9/L"}, {"measurement": "Female NHP HGB", "setting": "0.05 mg/kg IV, 7 days", "result": 121, "unit": "g/L"}, {"measurement": "Female NHP Neutrophils", "setting": "0.05 mg/kg IV, 7 days", "result": "2.77 10^9/L"}, {"measurement": "Male NHP HGB", "setting": "0.05 mg/kg IV, 7 days", "result": 126, "unit": "g/L"}, {"measurement": "Male NHP Neutrophils", "setting": "0.05 mg/kg IV, 7 days", "result": "1.23 10^9/L"}, {"measurement": "Female NHP HGB", "setting": "0.05 mg/kg IV, Pre-dose", "result": 133, "unit": "g/L"}, {"measurement": "Female NHP Neutrophils", "setting": "0.05 mg/kg IV, Pre-dose", "result": "2.15 10^9/L"}, {"measurement": "Male NHP HGB", "setting": "0.05 mg/kg IV, Pre-dose", "result": 133, "unit": "g/L"}, {"measurement": "Male NHP Neutrophils", "setting": "0.05 mg/kg IV, Pre-dose", "result": "0.97 10^9/L"}, {"measurement": "HCT", "setting": "[9]", "result": 0.43, "unit": "L/L"}, {"measurement": "RBC", "setting": "[9]", "result": "5.57 10^12/L"}, {"measurement": "HCT", "setting": "[10]", "result": 0.46, "unit": "L/L"}, {"measurement": "RBC", "setting": "[10]", "result": "5.57 10^12/L"}, {"measurement": "HCT", "setting": "[11]", "result": 0.39, "unit": "L/L"}, {"measurement": "RBC", "setting": "[11]", "result": "5.18 10^12/L"}, {"measurement": "HCT", "setting": "0.05 mg/kg, 24 hours, Male NHP", "result": 0.43, "unit": "L/L"}]}]}
